{
  "source": "paper PMC10553838",
  "about": "(PLOS Pathogens, 2023)",
  "binders": {"B1": {"name": "Pa-ExoY (20-378) K347A (enzyme)", "chain": "LLRPADMQARALQDLFDAQGVGVPVEHALRMQAVARQTNTVFGIRPVERIVTTLIEEGFPTKGFSVKGKSSNWGPQAGFICVDQHLSKREDRDTAEIRKLNLAVAKGMDGGAYTQTDLRISRQRLAELVRNFGLVADGVGPVRLLTAQGPSGKRYEFEARQEADGLYRISRLGRSEAVQVLASPACGLAMTADYDLFLVAPSIEAHGSGGLDARRNTAVRYTPLGAKDPLSEDGFYGREDMARGNITPRTRQLVDALNDCLGRGEHREMFHHSDDAGNPGSHMGDNFPATFYLPRAMEHRVGEESVRFDEVCVVADRKSFSLLVECIAGNGYHFTAHPDWNVPLRPGFQEALDFFQRKV"}, "B2": {"name": "Pa-ExoY (20-378) H352A (enzyme)", "chain": "B1 chain with A328K, H333A"}, "B3": {"name": "Pa-ExoY (20-378) 3 Mut (F367A-L371A-F374A) (enzyme)", "chain": "B1 chain with A328K, F348A, L352A, F355A"}},
  "note": "Where a chain is given by its changes, count along the chain named. Names may count otherwise.",
  "data": [
    {"target": "F-actin (filamentous rabbit skeletal muscle α-actin) (rabbit, UniProt P68135 1-377)", "experiment": "cell-based or functional assay", "values": [
      {"binder": "B1", "F-actin-stimulated guanylate cyclase (cGMP synthesis) activity, 3 μM F-actin, against wild-type Pa-ExoY": "~15 fold decrease"},
      {"binder": "B2", "F-actin-stimulated guanylate cyclase (cGMP synthesis) activity, 3 μM F-actin, against wild-type Pa-ExoY": "~8 fold decrease"},
      {"binder": "B3", "F-actin-stimulated guanylate cyclase (cGMP synthesis) activity, 3 μM F-actin, against wild-type Pa-ExoY": "~12000 fold reduction"}
    ]}
  ]
}
